Measured values as given in patent EP4790070A1 (Daegu Gyeongbuk Institute of Science and Technology, dated 2026).

Target: T1, human CD24 on human cancer cell lines (MCF7, A549, Huh7) (human, UniProt P25063 27-59)
T1 construct: whole, on cells; Endogenous CD24 on cancer cell lines
T1 chain (looked up): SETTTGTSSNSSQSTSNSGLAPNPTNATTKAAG
Assay: flow cytometry on fixed MCF-7 cells, FITC anti-human IgG

B1: anti-CD24 antibody #2 (Fc fusion)
VH: MAQVQLVQSGGGLIQPGGSLRLSCAASGFTVSSNYMSWVRQAPGKGLEWVSVIYSGGSTYYADSVKGRFTISRDNSKNTLYLQMNSLRAEDTAVYYCAREYGDYFDYWGQGTLVTVSSGS
VL: QSALTQPASVSGSPGQSITISCTGTSSDVGGYDHVSWYQQHPGKAPKLMIYEVTKRPSGVSDRFSGSKSGNTASLTISGLQADDEADYYCSSYAGSNSVLFGGGTQLTVLG
notes: also called Candidate 2
binding result: binds

B2: anti-CD24 antibody #1 (Fc fusion)
VH: MAQVQLLESGGGVVQPGRSLRLSCAASGFTFSSYGMHWVRQAPGKGLEWVSGMSGDGLATYYADSVKGRFTISRDNSKNTLYLQMNSLRAEDTAVYYCARDSSSWYGGYYYYYGMDVWGQGTTVTVSSGS
VL: DIQMTQSPSSVSASVGDRVTITCRASQGISSWLAWYQQKPGKAPKLLIYAASSLQSGVPPRFSGSGSGTDFTLTISSLQPEDFATYYCQQSYSTPLTFGGGTKVEIKR
notes: also called Candidate 1; αCD24 antibody (#1)
binding result: binds
